Drawing on the Immune Epitope Database (IEDB), this text covers Kd and IC50 for 22 sequences.

One assay addresses HLA-B*07:02. Description: IEDB peptide-MHC binding, purified MHC/competitive/radioactivity; filed as Kd, often an IC50 or EC50 that approximates it; ≥ and ≤ were set here for values at or beyond the usual limits of such assays.
A further assay addresses HLA-B*54:01. The description is as above.
For the next assay, the target named is HLA-B*53:01. Described as above.
The target of a further assay is HLA-B*51:01. Described as above.
Another assay has as its target HLA-B*35:01. Described as above.
Assay [1] addresses HLA-B*15:01. The experiment in a line: IEDB peptide-MHC binding, purified MHC/competitive/fluorescence; ≥ and ≤ were set here for values at or beyond the usual limits of such assays.
The next assay deals with HLA-A*02:01. The description is as above. The note with it: source organism: Zaire ebolavirus.
In assay [2] the target is HLA-B*15:01. Description: IEDB peptide-MHC binding, purified MHC/competitive/radioactivity; filed as Kd, often an IC50 or EC50 that approximates it; ≥ and ≤ were set here for values at or beyond the usual limits of such assays.
In a further assay the target is HLA-A*23:01. The assay is described as above. Conditions: source organism: Dengue virus 2 Peru/IQT2913/1996.
In another assay the target is HLA-A*24:02. Described as above. Conditions: source organism: Dengue virus 2 Peru/IQT2913/1996.
In another assay the target is HLA-A*01:01. Description: IEDB peptide-MHC binding, purified MHC/competitive/fluorescence; filed as Kd, often an IC50 or EC50 that approximates it; ≥ and ≤ were set here for values at or beyond the usual limits of such assays.
A further assay has as its target HLA-A*30:02. The experiment in a line: IEDB peptide-MHC binding, purified MHC/competitive/radioactivity; filed as Kd, often an IC50 or EC50 that approximates it; ≥ and ≤ were set here for values at or beyond the usual limits of such assays. Conditions: source organism: Dengue virus 3 Martinique/1243/1999.
The target in assay [3] is HLA-B*15:01. Description: IEDB peptide-MHC binding, purified MHC/competitive/fluorescence; filed as Kd, often an IC50 or EC50 that approximates it; ≥ and ≤ were set here for values at or beyond the usual limits of such assays. Conditions: source organism: Salmonella enterica subsp. enterica serovar Typhi.
The target in a further assay is HLA-A*03:01. The assay is described as above. Conditions: source organism: Salmonella enterica subsp. enterica serovar Typhi.
Where [4] appears, read: source organism: SARS coronavirus Tor2.
The mark [5] stands for this setting: source organism: Zaire ebolavirus.
[6] abbreviates: source organism: Dengue virus 2 Peru/IQT2913/1996.
The mark [7] stands for this setting: source organism: Vaccinia virus WR.
[8] abbreviates: source organism: Triticum aestivum.
[9] abbreviates: source organism: Mammarenavirus guanaritoense.

As usually defined, the Kd is a measure of binding affinity in units of concentration. As usually defined, the IC50 is the concentration that gives 50% inhibition. A higher IC50 goes with a need for much substance.

As to RPDTRYVLM, the Kd with HLA-B*07:02 (setting [4]) came out at 15.4 nM; with HLA-B*54:01 (setting [4]), 1580 nM; with HLA-B*53:01 (setting [4]), 4850 nM; with HLA-B*51:01 (setting [4]), 908 nM; in the assay with HLA-B*35:01 (setting [4]) it was 1990 nM.
As to RPKQRRPQGL, the Kd is 308 nM with HLA-B*07:02 (setting [4]); at least 69900 nM with HLA-B*54:01 (setting [4]); at least 69900 nM with HLA-B*53:01 (setting [4]); at least 69600 nM with HLA-B*51:01 (setting [4]); at least 69900 nM with HLA-B*35:01 (setting [4]).
On to ILQKTERGV, for which the IC50 was found to be 63300 nM with HLA-B*15:01 [1] (setting [5]) and 8690 nM in the assay with HLA-A*02:01.
As for IMLIPTVMAF, the Kd with HLA-B*15:01 [2] (setting [6]) is 2.69 nM; with HLA-A*23:01, 82 nM; with HLA-B*53:01 (setting [6]), 11100 nM; in the assay with HLA-A*24:02, 1540 nM.
The sequence GTFDLGGLY showed a Kd in the assay with HLA-A*01:01 (source organism: Influenza A virus (A/X-31(H3N2))) of 486 nM.
Regarding GPLVRKIFV, the Kd in the assay with HLA-B*07:02 (setting [4]) was 1380 nM; with HLA-B*54:01 (setting [4]), 18000 nM; in the assay with HLA-B*53:01 (setting [4]), 11900 nM; in the assay with HLA-B*51:01 (setting [4]) it was at least 22500 nM; with HLA-B*35:01 (setting [4]), 6070 nM.
EPLSPDTCL: the Kd with HLA-B*07:02 (setting [7]) is 10500 nM; with HLA-B*54:01 (setting [7]) it was at least 78100 nM; with HLA-B*53:01 (setting [7]), 189 nM; with HLA-B*51:01 (setting [7]), 211 nM; in the assay with HLA-B*35:01 (setting [7]), 522 nM.
For the sequence QPLQQYPL, the Kd is 8450 nM in the assay with HLA-B*07:02 (setting [8]); at least 87700 nM with HLA-B*54:01 (setting [8]); at least 22400 nM with HLA-B*53:01 (setting [8]); 1450 nM with HLA-B*51:01 (setting [8]); at least 36100 nM with HLA-B*35:01 (setting [8]).
As for NPSILPSLI, the Kd is 287 nM with HLA-B*07:02 (setting [7]); at least 73400 nM in the assay with HLA-B*54:01 (setting [7]); 5.55 nM with HLA-B*53:01 (setting [7]); 304 nM in the assay with HLA-B*51:01 (setting [7]); 1120 nM with HLA-B*35:01 (setting [7]).
For LPLTSLVITY, in that order: 7290 nM, 2700 nM, 12.7 nM, 16500 nM and 8.35 nM.
With AIALGVATA, the IC50 is at least 237000 nM in the assay with HLA-B*15:01 [1] (setting [5]) and 861 nM in the assay with HLA-A*02:01.
Take LIIYYQLAG: the Kd with HLA-B*15:01 [2] (setting [7]) amounted to 1290 nM.
Regarding LIHQGMHMV, the IC50 with HLA-B*15:01 [1] (setting [5]) was at least 87600 nM; in the assay with HLA-A*02:01 it was 443 nM.
For IMASENSSA the same measures were at least 106000 nM and 2480 nM.
The sequence LRIQSLMEM showed an IC50 with HLA-B*15:01 [1] (source organism: Vaccinia virus) of at least 663000 nM.
For the sequence ILALFLAHY, the results for the Kd with HLA-B*15:01 [2] (source organism: Dengue virus 3 Martinique/1243/1999) and with HLA-A*30:02 were 53.8 nM and 9830 nM, respectively.
SPLTLLIKTL: the Kd was 1120 nM in the assay with HLA-B*07:02 (setting [7]); at least 69900 nM with HLA-B*54:01 (setting [7]); at least 30000 nM with HLA-B*53:01 (setting [7]); at least 57300 nM with HLA-B*51:01 (setting [7]); at least 69900 nM in the assay with HLA-B*35:01 (setting [7]).
Turning to FTAMQALDY, the figures for the Kd with HLA-B*15:01 [3], with HLA-A*03:01 and in the assay with HLA-A*01:01 (source organism: Salmonella enterica subsp. enterica serovar Typhi) were 98.6 nM, at least 20000 nM and 1.6 nM, respectively.
Regarding GPKVKYLYF, the Kd with HLA-B*07:02 (setting [4]) was 15800 nM; with HLA-B*54:01 (setting [4]), 10400 nM; with HLA-B*53:01 (setting [4]) it was at least 41000 nM; with HLA-B*51:01 (setting [4]) it was 13600 nM; in the assay with HLA-B*35:01 (setting [4]), at least 52000 nM.
With QSKSSLLHA, the Kd with HLA-B*15:01 [2] (setting [7]) came out at 405 nM.
Regarding RMNVFNGHL, the Kd in the assay with HLA-B*15:01 [2] (source organism: Vaccinia virus Copenhagen) amounted to 28 nM.
As for LPNDRVLDI, the Kd amounted to 7270 nM with HLA-B*07:02 (setting [9]); 13100 nM with HLA-B*54:01 (setting [9]); 258 nM with HLA-B*53:01 (setting [9]); 539 nM in the assay with HLA-B*51:01 (setting [9]); 2690 nM with HLA-B*35:01 (setting [9]).
